A word on the Kd: it is the concentration at which binding is half-saturated.

In the assay the target is T1, human recombinant Tau-441 (human, UniProt P10636-8 1-441).
T1 construct: Commercial recombinant protein; source: bought: WAKO
Briefly: SPR; Biacore 2000; recombinant human Δ1–22 L-PGDS amine-coupled to a CM5 chip; Tau-441 flowed at 3, 2 and 1 nM; dissociation on washing with Dulbecco's phosphate-buffered saline; Kd from the sensorgrams with BIAevaluation 3.1. Particulars: both partners purified.

T1 sequence (P10636 other isoform, or with tags, fused parts or gaps): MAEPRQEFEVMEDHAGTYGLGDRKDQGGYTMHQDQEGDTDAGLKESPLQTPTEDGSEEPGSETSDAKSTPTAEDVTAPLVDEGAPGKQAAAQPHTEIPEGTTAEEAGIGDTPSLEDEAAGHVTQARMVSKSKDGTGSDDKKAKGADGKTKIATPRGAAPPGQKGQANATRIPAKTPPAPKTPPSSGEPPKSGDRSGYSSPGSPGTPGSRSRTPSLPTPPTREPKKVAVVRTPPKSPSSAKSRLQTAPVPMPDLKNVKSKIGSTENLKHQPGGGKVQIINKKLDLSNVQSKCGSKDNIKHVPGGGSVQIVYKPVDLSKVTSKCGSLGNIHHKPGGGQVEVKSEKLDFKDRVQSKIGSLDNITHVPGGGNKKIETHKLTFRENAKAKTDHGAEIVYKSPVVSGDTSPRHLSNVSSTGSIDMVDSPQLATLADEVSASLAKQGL

B1: human recombinant Δ1–22 L-PGDS (lipocalin-type prostaglandin D synthase without the signal sequence) (enzyme, UniProt P41222 23-190, looked up)
chain: APEAQVSVQPNFQQDKFLGRWFSAGLASNSSWLREKKAALSMCKSVVAPATDGGLNLTSTFLRKNQCETRTMLLQPAGSLGSYSYRSPHWGSTYSVSVVETDYDQYALLYSQGSKGPGEDFRMATLYSRTQTPRAELKEKFTAFCKAQGFTEDTIVFLPQTDKCMTEQ
notes: Cloned into pGEX-2T as a GST fusion and cut with thrombin; also called recombinant human ∆1–22 L-PGDS; recombinant human L-PGDS; source: E. coli BL21 (DE3), purified (glutathione-Sepharose 4B, thrombin digestion, gel filtration on HiLoad Superdex 75)
Take B1: the Kd came out at 910 µM.

The record behind these values is PMC11024442, “Lipocalin-type prostaglandin D synthase: a glymphopathy marker in idiopathic hydrocephalus” (Frontiers in Aging Neuroscience, 2024).
